Consider one molecule from US20130251724A1 (GlaxoSmithKline, published 2013).

The target of assay [1] is T1, Human OSM (human, UniProt P13725 26-221).
T1 construct: Recombinant human OSM; also called hOSM; human Oncostatin M
T1 sequence: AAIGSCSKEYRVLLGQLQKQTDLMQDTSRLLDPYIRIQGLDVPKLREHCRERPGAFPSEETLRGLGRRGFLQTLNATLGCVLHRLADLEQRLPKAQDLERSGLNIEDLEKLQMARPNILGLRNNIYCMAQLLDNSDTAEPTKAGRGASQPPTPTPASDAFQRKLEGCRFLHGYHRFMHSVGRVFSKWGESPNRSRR
The assay is described as follows: BIAcore kinetics. For orientation: Surface plasmon resonance follows binding to a sensor surface in real time, without labels.

Assay [2] addresses T2, Cynomolgus OSM (cynomolgus, UniProt A0A2K5VPC6 26-221).
T2 construct: also called Cyno OSM; cynomolgus macaque OSM
T2 sequence: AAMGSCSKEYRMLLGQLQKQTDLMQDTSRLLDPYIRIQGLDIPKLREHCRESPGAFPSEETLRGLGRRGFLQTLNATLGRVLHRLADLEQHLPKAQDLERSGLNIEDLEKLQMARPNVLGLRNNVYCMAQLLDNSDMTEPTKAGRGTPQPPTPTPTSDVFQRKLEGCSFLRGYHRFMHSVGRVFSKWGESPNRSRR
Briefly: BIAcore kinetics.

Assay [3] concerns the target T1, Human OSM. The assay is described as follows: cell-based or functional assay.
For assay [4], the target named is T2, Cynomolgus OSM. Briefly: cell-based or functional assay.
In another assay the target is Marmoset OSM (marmoset). The assay is described as follows: cell-based or functional assay.
Assay [5] addresses T1, Human OSM. Briefly: human gp130 ELISA, inhibition of OSM binding to gp130.
Assay [6] has as its target T2, Cynomolgus OSM. The description is as above.

Where “and” joins values, the source holds several entries; their conditions need not be identical. Equal values may be shown once.

B1: 2B7, murine anti-OSM mAb (antibody, V domains shown)
VH: EVQLVESGGGLVKPGGSLKLSCAASGFTFSNYAMSWVRQTPEKRLEWVATISDGGGYTYYLDNGQGRFTISRDNAKNNLYLQMSHLKSEDTAMYYCARDVGLTTFWYFDVWGTGTTVTVSS
VL: DIVLTQSPVSLVISLGQRATISCRASKSVSPSSYNFMHWYQQRPGQPPKLLITYASNLESGVPARFSGSGSGTDFTLNIHPVEEEDAATYYCQHSREFPFTFGGGTRLEIK
notes: Mouse hybridoma mAb; also called 2B7/A6; 2B7.A6
Consider B1, for which the Kd (commonly the concentration at which binding is half-saturated) in the assay with Human OSM [1] was determined as 2.09 nM; with Cynomolgus OSM [2], 9.31 nM. Further, the “KB cell neutralisation assay, mean IC50” value with Human OSM [3] was 0.049 µg/ml and 327 pM; with Cynomolgus OSM [4], 0.344 µg/ml and 2.3 nM. Also, the “IC50 (read off the curve); IL-6 release from KB cells stimulated with marmoset OSM” value with Marmoset OSM was approximately 0.05 µg/mL. In addition, the IC50 – broadly, the concentration that gives 50% inhibition – with Human OSM [5] is 0.08 µg/mL and 0.533 nM; with Cynomolgus OSM [6], 0.14 µg/mL and 0.993 nM.
